Reference: publication PMC9352680, “A comprehensive thermodynamic model for RNA binding by the Saccharomyces cerevisiae Pumilio protein PUF4”
Substitutions are numbered along the chain they refer to. In names and notes the source's numbering stands.

T1: PUF4 RNA-binding domain (Saccharomyces cerevisiae, UniProt P25339 537-888)
T1 sequence: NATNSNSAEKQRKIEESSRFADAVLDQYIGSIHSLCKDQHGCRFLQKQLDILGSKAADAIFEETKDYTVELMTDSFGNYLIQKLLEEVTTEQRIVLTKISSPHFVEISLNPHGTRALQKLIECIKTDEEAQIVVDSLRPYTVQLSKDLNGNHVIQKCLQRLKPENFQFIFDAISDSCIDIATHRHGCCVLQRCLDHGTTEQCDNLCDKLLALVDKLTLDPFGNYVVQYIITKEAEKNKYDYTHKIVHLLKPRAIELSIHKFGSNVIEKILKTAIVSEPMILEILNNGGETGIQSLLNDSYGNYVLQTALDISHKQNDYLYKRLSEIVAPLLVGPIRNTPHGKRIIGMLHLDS

B1: Ic_S2_P4E.1_K4.1_C4.1_H4.1_A4.1_[T5A]_[A6T]_[T7C]_F4.1_[T8C]_[A9C]_T4.1 (ssRNA)
RNA: UUUGAUUAAUAUGAUAUCGUUCUUUCUUGUAAUCCCUUCUUUCUCGAUAUCAUAUUAAUCUUU
B2: Ic_S2_P4E.1_K4.1_C4.1_H4.1_A4.1_[T5A]_[T7C]_F4.1_[A9C]_T4.1 (ssRNA)
RNA: B1 RNA with U33A, C35U
B3: Ic_S2_P4E.1_K4.1_C4.1_H4.1_A4.1_[A6G]_[T7C]_F4.1_[T8A]_[A9G]_T4.1 (ssRNA)
RNA: B1 RNA with A32U, U33G, C35A, C36G
B4: Ic_S2_P4E.1_K4.1_C4.1_H4.1_A4.1_[T5A]_[T7C]_F4.1_[T8A]_[A9G]_T4.1 (ssRNA)
RNA: B1 RNA with U33A, C35A, C36G
B5: Ic_S2_P4E.1_K4.1_C4.1_H4.1_A4.1_[T5A]_[A6T]_[T7A]_F4.1_[T8G]_[A9C]_T4.1 (ssRNA)
RNA: B1 RNA with C34A, C35G
B6: Ic_S2_P4E.1_K4.1_C4.1_H4.1_A4.1_[T5A]_[A6T]_[T7C]_F4.1_[A9G]_T4.1 (ssRNA)
RNA: B1 RNA with C35U, C36G
B7: Ic_S2_P4E.1_K4.1_C4.1_H4.1_A4.1_[A6G]_[T7C]_F4.1_[T8A]_T4.1 (ssRNA)
RNA: B1 RNA with A32U, U33G, C35A, C36A
B8: Ic_S2_P4E.1_K4.1_C4.1_H4.1_A4.1_[T5A]_F4.1_[T8A]_[A9G]_T4.1 (ssRNA)
RNA: B1 RNA with U33A, C34U, C35A, C36G
B9: Ic_S2_P4E.1_K4.1_C4.1_H4.1_A4.1_[T5A]_[A6T]_[T7C]_F4.1_T4.1 (ssRNA)
RNA: B1 RNA with C35U, C36A
B10: Ic_S2_P4E.1_K4.1_C4.1_H4.1_A4.1_[T5A]_[A6T]_[T7A]_F4.1_[T8C]_T4.1 (ssRNA)
RNA: B1 RNA with C34A, C36A
B11: Ic_S2_P4E.1_K4.1_C4.1_H4.1_A4.1_[A6G]_[T7G]_F4.1_[T8C]_[A9T]_T4.1 (ssRNA)
RNA: B1 RNA with A32U, U33G, C34G, C36U
B12: Ic_S2_P4E.1_K4.1_C4.1_H4.1_A4.1_[T5A]_[T7C]_F4.1_[T8A]_[A9C]_T4.1 (ssRNA)
RNA: B1 RNA with U33A, C35A
B13: Ic_S2_P4E.1_K4.1_C4.1_H4.1_A4.1_[T5A]_F4.1_[T8A]_[A9C]_T4.1 (ssRNA)
RNA: B1 RNA with U33A, C34U, C35A
B14: Ic_S2_P4E.1_K4.1_C4.1_H4.1_A4.1_[T5A]_[T7C]_F4.1_[T8A]_T4.1 (ssRNA)
RNA: B1 RNA with U33A, C35A, C36A
B15: Ic_S2_P4E.1_K4.1_C4.1_H4.1_A4.1_[A6G]_F4.1_[T8G]_[A9G]_T4.1 (ssRNA)
RNA: B1 RNA with A32U, U33G, C34U, C35G, C36G
B16: Ic_S2_P4E.1_K4.1_C4.1_H4.1_A4.1_[T5A]_[A6T]_F4.1_[T8A]_[A9T]_T4.1 (ssRNA)
RNA: B1 RNA with C34U, C35A, C36U
B17: Ic_S2_P4E.1_K4.1_C4.1_H4.1_A4.1_[A6G]_[T7C]_F4.1_[A9T]_T4.1 (ssRNA)
RNA: B1 RNA with A32U, U33G, C35U, C36U
B18: Ic_S2_P4E.1_K4.1_C4.1_H4.1_A4.1_[A6G]_F4.1_[T8G]_[A9T]_T4.1 (ssRNA)
RNA: B1 RNA with A32U, U33G, C34U, C35G, C36U
B19: Ic_S2_P4E.1_K4.1_C4.1_H4.1_A4.1_[T5A]_[T7A]_F4.1_[A9C]_T4.1 (ssRNA)
RNA: B1 RNA with U33A, C34A, C35U
B20: Ic_S2_P4E.1_K4.1_C4.1_H4.1_A4.1_[T5A]_[A6T]_[T7C]_F4.1_[T8A]_[A9G]_T4.1 (ssRNA)
RNA: B1 RNA with C35A, C36G
B21: Ic_S2_P4E.1_K4.1_C4.1_H4.1_A4.1_[T5A]_[A6T]_F4.1_[T8C]_[A9T]_T4.1 (ssRNA)
RNA: B1 RNA with C34U, C36U
B22: Ic_S2_P4E.1_K4.1_C4.1_H4.1_A4.1_[T5A]_[T7A]_F4.1_[T8C]_[A9C]_T4.1 (ssRNA)
RNA: B1 RNA with U33A, C34A
B23: Ic_S2_P4E.1_K4.1_C4.1_H4.1_A4.1_[T5A]_[A6T]_[T7A]_F4.1_[T8A]_T4.1 (ssRNA)
RNA: B1 RNA with C34A, C35A, C36A
B24: Ic_S2_P4E.1_K4.1_C4.1_H4.1_A4.1_[T5A]_[T7A]_F4.1_[A9G]_T4.1 (ssRNA)
RNA: B1 RNA with U33A, C34A, C35U, C36G
B25: Ic_S2_P4E.1_K4.1_C4.1_H4.1_A4.1_[T5A]_[A6T]_F4.1_[T8C]_[A9G]_T4.1 (ssRNA)
RNA: B1 RNA with C34U, C36G
B26: Ic_S2_P4E.1_K4.1_C4.1_H4.1_A4.1_[A6G]_[T7C]_F4.1_[T8G]_[A9G]_T4.1 (ssRNA)
RNA: B1 RNA with A32U, U33G, C35G, C36G
B27: Ic_S2_P4E.1_K4.1_C4.1_H4.1_A4.1_[T5A]_[A6T]_[T7A]_F4.1_[A9G]_T4.1 (ssRNA)
RNA: B1 RNA with C34A, C35U, C36G
B28: Ic_S2_P4E.1_K4.1_C4.1_H4.1_A4.1_[T5A]_[A6T]_[T7C]_F4.1_[T8A]_[A9T]_T4.1 (ssRNA)
RNA: B1 RNA with C35A, C36U
B29: Ic_S2_P4E.1_K4.1_C4.1_H4.1_A4.1_[A6G]_[T7C]_F4.1_[T8C]_[A9T]_T4.1 (ssRNA)
RNA: B1 RNA with A32U, U33G, C36U
B30: Ic_S2_P4E.1_K4.1_C4.1_H4.1_A4.1_[T5A]_[A6T]_[T7C]_F4.1_[A9T]_T4.1 (ssRNA)
RNA: B1 RNA with C35U, C36U
B31: Ic_S2_P4E.1_K4.1_C4.1_H4.1_A4.1_[A6G]_[T7C]_F4.1_[T8C]_T4.1 (ssRNA)
RNA: B1 RNA with A32U, U33G, C36A
B32: Ic_S2_P4E.1_K4.1_C4.1_H4.1_A4.1_[T5A]_[T7C]_F4.1_[A9T]_T4.1 (ssRNA)
RNA: B1 RNA with U33A, C35U, C36U
B33: Ic_S2_P4E.1_K4.1_C4.1_H4.1_A4.1_[A6G]_[T7C]_F4.1_[T8A]_[A9C]_T4.1 (ssRNA)
RNA: B1 RNA with A32U, U33G, C35A
B34: Ic_S2_P4E.1_K4.1_C4.1_H4.1_A4.1_[T5A]_[A6T]_F4.1_[T8C]_[A9C]_T4.1 (ssRNA)
RNA: B1 RNA with C34U
B35: Ic_S2_P4E.1_K4.1_C4.1_H4.1_A4.1_[A6G]_[T7C]_F4.1_[T8A]_[A9T]_T4.1 (ssRNA)
RNA: B1 RNA with A32U, U33G, C35A, C36U
B36: Ic_S2_P4E.1_K4.1_C4.1_H4.1_A4.1_[T5A]_[T7C]_F4.1_[T8C]_[A9T]_T4.1 (ssRNA)
RNA: B1 RNA with U33A, C36U
B37: Ic_S2_P4E.1_K4.1_C4.1_H4.1_A4.1_[T5A]_[A6T]_[T7C]_F4.1_[T8C]_[A9T]_T4.1 (ssRNA)
RNA: B1 RNA with C36U
B38: Ic_S2_P4E.1_K4.1_C4.1_H4.1_A4.1_[T5A]_[A6T]_F4.1_[T8G]_[A9T]_T4.1 (ssRNA)
RNA: B1 RNA with C34U, C35G, C36U
B39: Ic_S2_P4E.1_K4.1_C4.1_H4.1_A4.1_[T5A]_[A6T]_F4.1_[A9C]_T4.1 (ssRNA)
RNA: B1 RNA with C34U, C35U
B40: Ic_S2_P4E.1_K4.1_C4.1_H4.1_A4.1_[A6G]_[T7G]_F4.1_[T8C]_[A9G]_T4.1 (ssRNA)
RNA: B1 RNA with A32U, U33G, C34G, C36G
B41: Ic_S2_P4E.1_K4.1_C4.1_H4.1_A4.1_[T5A]_[A6T]_[T7A]_F4.1_T4.1 (ssRNA)
RNA: B1 RNA with C34A, C35U, C36A
B42: Ic_S2_P4E.1_K4.1_C4.1_H4.1_A4.1_[A6G]_F4.1_[T8G]_[A9C]_T4.1 (ssRNA)
RNA: B1 RNA with A32U, U33G, C34U, C35G
B43: Ic_S2_P4E.1_K4.1_C4.1_H4.1_A4.1_[T5A]_[A6T]_[T7A]_F4.1_[T8A]_[A9T]_T4.1 (ssRNA)
RNA: B1 RNA with C34A, C35A, C36U
B44: Ic_S2_P4E.1_K4.1_C4.1_H4.1_A4.1_[T5A]_[T7C]_F4.1_[A9G]_T4.1 (ssRNA)
RNA: B1 RNA with U33A, C35U, C36G
B45: Ic_S2_P4E.1_K4.1_C4.1_H4.1_A4.1_[A6G]_[T7G]_F4.1_[A9T]_T4.1 (ssRNA)
RNA: B1 RNA with A32U, U33G, C34G, C35U, C36U
B46: Ic_S2_P4E.1_K4.1_C4.1_H4.1_A4.1_[T5A]_[A6T]_F4.1_[A9T]_T4.1 (ssRNA)
RNA: B1 RNA with C34U, C35U, C36U
B47: Ic_S2_P4E.1_K4.1_C4.1_H4.1_A4.1_[T5A]_F4.1_[T8G]_[A9T]_T4.1 (ssRNA)
RNA: B1 RNA with U33A, C34U, C35G, C36U
B48: Ic_S2_P4E.1_K4.1_C4.1_H4.1_A4.1_[T5A]_[A6T]_[T7A]_F4.1_[T8A]_[A9C]_T4.1 (ssRNA)
RNA: B1 RNA with C34A, C35A

biological target: T1, PUF4 RNA-binding domain; assay: Mg; RNA-MaP; 20 mM Na-HEPES pH 7.4, 30 mM KOAc, 0.75 mM MgCl2, 0.1% Tween-20, 5% glycerol, 0.1 mg/mL BSA, 2 mM DTT; 25 C; 0.0125-409.6 nM protein; conditions: tags: N-His6-TEV cleaved; C-SNAP kept, Cy3B-labelled; label: tethered on chip by stalled RNA polymerase

Binder | Kd [nM]
UCUCUUUGUAUAUGCUCUCUU (ssRNA) [Ib_S1_P4E.1_K4.1_C4.1_H4.1_A4.1_F4.1_[T8G]_[A9C]_T4.1] | 26.8
UCUCUUUGUAAUUAUCUCUU (ssRNA) [Ib_S1_P3E.1_K3.1_C3.1_H3.1_A3.1_[T5A]_[A6T]_F3.1_T3.1] | 155
UCUCUUUGUAACUAUCUCUU (ssRNA) [Ic_S1_P3E.1_K3.1_C3.1_H3.1_A3.1_[T5A]_[A6C]_F3.1_T3.1] | 271
B1 | 454
B2 | 26.1
B3 | 1090
B4 | 1140
B5 | 1120
B6 | 24.7
B7 | 239
B8 | 67.7
B9 | 2.23
B10 | 558
B11 | 619
B12 | 528
B13 | 23.4
B14 | 57.8
B15 | 215
B16 | 36.2
B17 | 23.9
B18 | 17
B19 | 65.2
B20 | 1430
B21 | 48
B22 | 385
B23 | 56
B24 | 21

Binder | Kd [nM]
B25 | 649
B26 | 1310
B27 | 11.1
B28 | 128
B29 | 404
B30 | 22
B31 | 29.3
B32 | 14.6
B33 | 848
B34 | 315
B35 | 155
B36 | 242
B37 | 283
B38 | 117
B39 | 44.7
B40 | 1670
B41 | 1.45
B42 | 40
B43 | 94.7
B44 | 18.3
B45 | 224
B46 | 22.4
B47 | 164
B48 | 470
UCUCUUUGUAAGUAUCUCUU (ssRNA) [Ic_S1_P3E.1_K3.1_C3.1_H3.1_A3.1_[T5A]_[A6G]_F3.1_T3.1] | 1780
UCUCUUUGUAUAUGGUCUCUU (ssRNA) [Ib_S1_P4E.1_K4.1_C4.1_H4.1_A4.1_F4.1_[T8G]_[A9G]_T4.1] | 47.2
UCUCUUCGUAUAUUAUCUCUU (ssRNA) [Ia_S1_P4E.1_K4.1_C4.1_H4.1_[T1C]_A4.1_F4.1_T4.1] | 20.9
